From the supplement of paper PMC10201428
± gives the standard deviation of the averaged measurements.

Columns and labels:
[1] = system: VchCAST RNA-guided transposition machinery (E. coli BL21(DE3) host, lacZ target); assay: relative integration efficiency (T-RL orientation) vs wild-type transposon end (log2 (normalized fold change)); transposon end mutated: right end (5 bp flank + 75 bp right end); higher = more efficient transposition
Method in brief: (§1)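 In E. coli BL21(DE3), a T7-driven effector plasmid was paired with a pUC57 mini-transposon donor containing 1549 left-end or 1849 right-end barcoded transposon variants. Cells grew on plates with 0.1 mM IPTG at 37°C for 18 h. Relative integration efficiency was derived from Illumina reads of genomic integration junctions against input plasmids, as a log-transformed output/input barcode fold change normalised to reference barcodes.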

[2] = system: VchCAST RNA-guided transposition machinery (E. coli BL21(DE3) host, lacZ target); assay: relative integration efficiency (T-LR orientation) vs wild-type transposon end (log2 (normalized fold change)); transposon end mutated: right end (5 bp flank + 75 bp right end); higher = more efficient transposition
Method in brief: as §1

Row | Sequence | relative integration efficiency (log2) [1] | relative integration efficiency (log2) [2]
1 | ACATTTGTTGATACAACCATAAAATGATAATGCACAAACGCCCGGTCGCCGGCGACACAAACGCCCGGTCGCGGTAAGAGGATCATAGTCAGACCAACATTGCTACGACCCGTATTCGCACCGACAC | -2.15 ± 0.043 | 1.04 ± 0.18
2 | ACATTTGTTGATACAACCATAAAATGATAATGCACCCCATAAATTGATAATTATCACACCCATAAATTGATATTGCCTCTGATCATAGTCAGACCAACATTGCTACGACCCGTATTCGCACCGACAC | -1.24 ± 0.24 | -0.689 ± 0.18
3 | ACATTTGTTGATACAACCATAAAATGATAATGCCACCCATAAATTGATAATGCTCACACCCATAAATTGATATTTACTCTGATCATAGTCAGACCAACATTGCTACGACCCGTATTCGCACCGACAC | -0.867 ± 0.17 | -0.0326 ± 0.2
4 | ACATTTGTTGATACAACCATAAAATGATAATGCCACCCATAAATTGATAATTATCACACCCATAAATTGATATTGCCTCTGATCATAGTCAGACCAACATTGCTACGACCCGTATTCGCACCGACAC | -0.625 ± 0.1 | -0.173 ± 0.33
5 | ACATTTGTTGATACAACCATAAAATGATAATTAACAAACGCCCGGTCGCCGGCGACACAAACGCCCGGTCGCGGTAAGAGGATCATAGTCAGACCAACATTGCTACGACCCGTATTCGCACCGACAC | -2.3 ± 0.29 | 0.957 ± 0.25
6 | ACATTTGTTGATACAACCATAAAATGATAATTAACAAACGCCCGGTCGCCGGCTCAACAAACGCCCGGTCGCGGTACTCTGATCATAGTCAGACCAACATTGCTACGACCCGTATTCGCACCGACAC | -1.98 ± 0.26 | 1.12 ± 0.068
7 | ACATTTGTTGATACAACCATAAAATGATAATTAACAAACGCCCGGTCGCCGGCTCACACCCATAAATTGATATTGCCTCTGATCATAGTCAGACCAACATTGCTACGACCCGTATTCGCACCGACAC | -3.28 ± 0.31 | -0.997 ± 0.22
8 | ACATTTGTTGATACAACCATAAAATGATAATTAACAACATAAATTGATAATTATCACACCCATAAATTGATATTGCCTCTGATCATAGTCAGACCAACATTGCTACGACCCGTATTCGCACCGACAC | -0.394 ± 0.018 | -0.921 ± 0.31
9 | ACATTTGTTGATACAACCATAAAATGATAATTAACACCCATAAATTGATAATTATCAACAAACGCCCGGTCGCGGTACTCTGATCATAGTCAGACCAACATTGCTACGACCCGTATTCGCACCGACA | -0.721 ± 0.29 | 1.67 ± 0.2
10 | ACATTTGTTGATACAACCATAAAATGATAATTAACACCCATAAATTGATAATTATCACACCCATAAATTGATATTGCCTCTGATCATAGTCAGACCAACATTGCTACGACCCGTATTCGCACCGACA | -0.572 ± 0.11 | -0.437 ± 0.21
11 | ACATTTGTTGATACAACCATAAAATGATAATTAACCCCATAAATTGATAATTATCACACCCATAAATTGATATTGCCTCTGATCATAGTCAGACCAACATTGCTACGACCCGTATTCGCACCGACAC | -0.822 ± 0.075 | -0.881 ± 0.17
12 | ACATTTGTTGATACAACCATAAAATGATAATTAATAACACCCATAAATTGATAATTATCAACAAACGCCCGGTCGCGGTACTCTGATCATAGTCAGACCAACATTGCTACGACCCGTATTCGCACCG | -2.52 ± 0.17 | 0.892 ± 0.16
13 | ACATTTGTTGATACAACCATAAAATGATAATTAATAACACCCATAAATTGATAATTATCACACCCATAAATTGATATTGCCTCTGATCATAGTCAGACCAACATTGCTACGACCCGTATTCGCACCG | -3.16 ± 0.3 | 0.728 ± 0.12
14 | ACATTTGTTGATACAACCATAAAATGATAATTAATAATCACCCATAAATTGATAATTATCAACAAACGCCCGGTCGCGGTACTCTGATCATAGTCAGACCAACATTGCTACGACCCGTATTCGCACC | -2.77 ± 0.31 | 0.619 ± 0.018
15 | ACATTTGTTGATACAACCATAAAATGATAATTAATAATCACCCATAAATTGATAATTATCACACCCATAAATTGATATTGCCTCTGATCATAGTCAGACCAACATTGCTACGACCCGTATTCGCACC | -2.77 ± 0.17 | 0.894 ± 0.13
16 | ACATTTGTTGATACAACCATAAAATGATAATTAATAATTACACCCATAAATTGATAATTATCAACAAACGCCCGGTCGCGGTACTCTGATCATAGTCAGACCAACATTGCTACGACCCGTATTCGCA | -2.18 ± 0.28 | 1.37 ± 0.24

Row | Sequence | relative integration efficiency (log2) [1] | relative integration efficiency (log2) [2]
17 | ACATTTGTTGATACAACCATAAAATGATAATTAATAATTACACCCATAAATTGATAATTATCACACCCATAAATTGATATTGCCTCTGATCATAGTCAGACCAACATTGCTACGACCCGTATTCGCA | -3.12 ± 0.2 | 0.0363 ± 0.21
18 | ACATTTGTTGATACAACCATAAAATGATAATTAATAATTATCACCCATAAATTGATAATTATCAACAAACGCCCGGTCGCGGTACTCTGATCATAGTCAGACCAACATTGCTACGACCCGTATTCGC | -3.56 ± 0.2 | -0.012 ± 0.0046
19 | ACATTTGTTGATACAACCATAAAATGATAATTAATAATTATCACCCATAAATTGATAATTATCACACCCATAAATTGATATTGCCTCTGATCATAGTCAGACCAACATTGCTACGACCCGTATTCGC | -3.32 ± 0.2 | -0.503 ± 0.38
20 | ACATTTGTTGATACAACCATAAAATGATAATTAATAATTATTCACCCATAAATTGATAATTATCAACAAACGCCCGGTCGCGGTACTCTGATCATAGTCAGACCAACATTGCTACGACCCGTATTCG | -2.63 ± 0.4 | 0.337 ± 0.11
21 | ACATTTGTTGATACAACCATAAAATGATAATTAATAATTATTCACCCATAAATTGATAATTATCACACCCATAAATTGATATTGCCTCTGATCATAGTCAGACCAACATTGCTACGACCCGTATTCG | -3.976 ± 0.019 | -1.92 ± 0.46
22 | ACATTTGTTGATACAACCATAAAATGATAATTAATAATTATTTACACCCATAAATTGATAATTATCAACAAACGCCCGGTCGCGGTACTCTGATCATAGTCAGACCAACATTGCTACGACCCGTATT | -2.54 ± 0.21 | 0.163 ± 0.01
23 | ACATTTGTTGATACAACCATAAAATGATAATTAATAATTATTTACACCCATAAATTGATAATTATCACACCCATAAATTGATATTGCCTCTGATCATAGTCAGACCAACATTGCTACGACCCGTATT | -2.85 ± 0.13 | -4.57 ± 0.14
24 | ACATTTGTTGATACAACCATAAAATGATAATTAATAATTATTTATAACACCCATAAATTGATAATTATCAACAAACGCCCGGTCGCGGTACTCTGATCATAGTCAGACCAACATTGCTACGACCCGT | -2.63 ± 0.52 | 0.00268 ± 0.47
25 | ACATTTGTTGATACAACCATAAAATGATAATTAATAATTATTTATAACACCCATAAATTGATAATTATCACACCCATAAATTGATATTGCCTCTGATCATAGTCAGACCAACATTGCTACGACCCGT | -3.19 ± 0.2 | -0.494 ± 0.28
26 | ACATTTGTTGATACAACCATAAAATGATAATTAATAATTATTTATAATCACACCCATAAATTGATAATTATCAACAAACGCCCGGTCGCGGTACTCTGATCATAGTCAGACCAACATTGCTACGACC | -2.09 ± 0.28 | 1.25 ± 0.18
27 | ACATTTGTTGATACAACCATAAAATGATAATTAATAATTATTTATAATCACACCCATAAATTGATAATTATCACACCCATAAATTGATATTGCCTCTGATCATAGTCAGACCAACATTGCTACGACC | -3.38 ± 0.096 | -0.35 ± 0.25
28 | ACATTTGTTGATACAACCATAAAATGATAATTAATAATTATTTATAATCACCCATAAATTGATAATTATCAACAAACGCCCGGTCGCGGTACTCTGATCATAGTCAGACCAACATTGCTACGACCCG | -3.08 ± 0.15 | 1.05 ± 0.26
29 | ACATTTGTTGATACAACCATAAAATGATAATTAATAATTATTTATAATCACCCATAAATTGATAATTATCACACCCATAAATTGATATTGCCTCTGATCATAGTCAGACCAACATTGCTACGACCCG | -2.92 ± 0.3 | 0.877 ± 0.18
30 | ACATTTGTTGATACAACCATAAAATGATAATTAATAATTATTTATAATCAGCAACACCCATAAATTGATAATTATCAACAAACGCCCGGTCGCGGTACTCTGATCATAGTCAGACCAACATTGCTAC | -3.18 ± 0.077 | 0.0215 ± 0.36
31 | ACATTTGTTGATACAACCATAAAATGATAATTAATAATTATTTATAATCAGCAACCACCCATAAATTGATAATTATCAACAAACGCCCGGTCGCGGTACTCTGATCATAGTCAGACCAACATTGCTA | -2.29 ± 0.24 | 0.0897 ± 0.14
32 | ACATTTGTTGATACAACCATAAAATGATAATTAATAATTATTTATAATCAGCAACCACCCATAAATTGATAATTATCACACCCATAAATTGATATTGCCTCTGATCATAGTCAGACCAACATTGCTA | -3.26 ± 0.25 | -1.81 ± 0.066
